According to the supplement of paper PMC11246515:
± gives the standard deviation of the averaged measurements.

Assay: total protein half-life in vivo (active degradation + dilution); higher = more stable protein
[1] = wild type E. coli NCM3722, growth: C-lim chemostat, doubling time 12 h
[2] = E. coli NCM3722 delta-clpP delta-lon delta-hslV, growth: N-lim chemostat, doubling time 6 h
[3] = E. coli NCM3722 delta-clpP, growth: N-lim chemostat, doubling time 6 h
[4] = E. coli NCM3722 delta-hslV, growth: N-lim chemostat, doubling time 6 h
[5] = E. coli NCM3722 delta-lon, growth: N-lim chemostat, doubling time 6 h
[6] = E. coli NCM3722 delta-smpB, growth: N-lim chemostat, doubling time 6 h
[7] = wild type E. coli NCM3722, growth: C-lim chemostat, doubling time 3 h
[8] = wild type E. coli NCM3722, growth: C-lim chemostat, doubling time 6 h
[9] = wild type E. coli NCM3722, growth: N-lim chemostat, doubling time 6 h
[10] = wild type E. coli NCM3722, growth: N-lim chemostat, doubling time 12 h
[11] = wild type E. coli NCM3722, growth: P-lim chemostat, doubling time 6 h
[12] = wild type E. coli NCM3722, growth: P-lim chemostat, doubling time 12 h

Sequence	total protein half-life in vivo [1]	total protein half-life in vivo [2]	total protein half-life in vivo [3]	total protein half-life in vivo [4]	total protein half-life in vivo [5]	total protein half-life in vivo [6]	total protein half-life in vivo [7]	total protein half-life in vivo [8]	total protein half-life in vivo [9]	total protein half-life in vivo [10]	total protein half-life in vivo [11]	total protein half-life in vivo [12]
MAKNTSCGVQLRIRGKVQGVGFRPFVWQLAQQLNLHGDVCNDGDGVEVRLREDPETFLVQLYQHCPPLARIDSVEREPFIWSQLPTEFTIRQSTGGTMNTQIVPDAATCPACLAEMNTPGERRYRYPFINCTHCGPRFTIIRAMPYDRPFTVMAAFPLCPACDKEYRDPLDRRFHAQPVACPECGPHLEWVSHGEHAEQEAALQAAIAQLKMGKIVAIKGIGGFHLACDARNSNAVATLRARKHRPAKPLAVMLPVADGLPDAARQLLTTPAAPIVLVDKKYVPELCDDIAPDLNEVGVMLPANPLQHLLLQELQCPLVMTSGNLSGKPPAISNEQALADLQGIADGFLIHNRDIVQRMDDSVVRESGEMLRRSRGYVPDALALPPGFKNVPPVLCLGADLKNTFCLVRGEQAVLSQHLGDLSDDGIQMQWREALRLMQNIYDFTPQYVVHDAHPGYVSSQWAREMNLPTQTVLHHHAHAAACLAEHQWPLDGGDVIALTLDGIGMGENGALWGGECLRVNYRECEHLGGLPAVALPGGDLAAKQPWRNLLAQCLRFVPEWQNYSETASVQQQNWSVLARAIERGINAPLASSCGRFFDAVAAALGCAPATLSYEGEAACALEALAASCHGVTHPVTMPRVDNQLDLATFWQQWLNWQAPVNQRAWAFHDALAQGFAALMREQATMRGITTLVFSGGVIHNRLLRARLAHYLADFTLLFPQSLPAGDGGLSLGQGVIAAARWLAGEVQNG	9.74 ± 2.4 h	–	–	–	–	–	–	–	–	–	–	–
MAKNYYDITLALAGICQSARLVQQLAHQGHCDADALHVSLNSIIDMNPSSTLAVFGGSEANLRVGLETLLGVLNASSRQGLNAELTRYTLSLMVLERKLSSAKGALDTLGNRINGLQRQLEHFDLQSETLMSAMAAIYVDVISPLGPRIQVTGSPAVLQSPQVQAKVRATLLAGIRAAVLWHQVGGGRLQLMFSRNRLTTQAKQILAHLTPEL	12.2 ± 2.8 h	6.52 ± 1.1 h	5.78 ± 0.42 h	6.17 ± 0.66 h	5.23 ± 0.89 h	6 ± 0.18 h	3.36 ± 0.65 h	5.87 ± 0.23 h	5.449 ± 0.017 h	10.6 ± 0.7 h	6.04 ± 0.18 h	13.2 ± 0.51 h
MAKQDYYEILGVSKTAEEREIRKAYKRLAMKYHPDRNQGDKEAEAKFKEIKEAYEVLTDSQKRAAYDQYGHAAFEQGGMGGGGFGGGADFSDIFGDVFGDIFGGGRGRQRAARGADLRYNMELTLEEAVRGVTKEIRIPTLEECDVCHGSGAKPGTQPQTCPTCHGSGQVQMRQGFFAVQQTCPHCQGRGTLIKDPCNKCHGHGRVERSKTLSVKIPAGVDTGDRIRLAGEGEAGEHGAPAGDLYVQVQVKQHPIFEREGNNLYCEVPINFAMAALGGEIEVPTLDGRVKLKVPGETQTGKLFRMRGKGVKSVRGGAQGDLLCRVVVETPVGLNERQKQLLQELQESFGGPTGEHNSPRSKSFFDGVKKFFDDLTR	9.44 ± 0.52 h	–	6.07 ± 0.65 h	4.941 ± 0.031 h	6.155 ± 0.042 h	4.51 ± 0.36 h	2.67 ± 0.034 h	4.97 ± 0.22 h	4.9 ± 0.55 h	8.73 ± 0.55 h	5.193 ± 0.045 h	11.41 ± 0.11 h
MAKSLFRALVALSFLAPLWLNAAPRVITLSPANTELAFAAGITPVGVSSYSDYPPQAQKIEQVSTWQGMNLERIVALKPDLVIAWRGGNAERQVDQLASLGIKVMWVDATSIEQIANALRQLAPWSPQPDKAEQAAQSLLDQYAQLKAQYADKPKKRVFLQFGINPPFTSGKESIQNQVLEVCGGENIFKDSRVPWPQVSREQVLARSPQAIVITGGPDQIPKIKQYWGEQLKIPVIPLTSDWFERASPRIILAAQQLCNALSQVD	4.41 ± 0.44 h	3.92 ± 0.45 h	5.19 ± 0.79 h	6.42 ± 0.87 h	5.93 ± 0.48 h	5.67 ± 0.72 h	–	6.08 ± 0.89 h	5.44 ± 0.56 h	12.1 ± 1.3 h	–	12.3 ± 0.33 h
MAKYNEKELADTSKFLSFVLRHKPEAIGIVLDREGWADIDKLILCAQKAGKRLTRALLDTVVATSDKKRFSYSSDGRCIRAVQGHSTSQVAISFAEKTPPQFLYHGTASRFLDEIKKQGLIAGERHYVHLSADEATARKVGARHGSPVILTVKAQEMAKRGLPFWQAENGVWLTSTVAVEFLEW	5.97 h	4.33 h	1.59 h	–	2.51 h	1.27 ± 0.11 h	1.85 h	2.25 ± 0.44 h	–	–	–	–
MALLDFFLSRKKNTANIAKERLQIIVAERRRSDAEPHYLPQLRKDILEVICKYVQIDPEMVTVQLEQKDGDISILELNVTLPEAEELK [P0A734]	6.36 ± 0.066 h	5.76 ± 0.51 h	4.57 ± 0.13 h	–	3.791 ± 0.018 h	4.06 ± 0.14 h	2.736 ± 0.016 h	4.59 ± 0.27 h	3.626 ± 0.022 h	6.22 ± 0.13 h	4.14 ± 1.5 h	8.17 ± 0.36 h
MALLEICCYSMECALTAQQNGADRVELCAAPKEGGLTPSLGVLKSVRQRVTIPVHPIIRPRGGDFCYSDGEFAAILEDVRTVRELGFPGLVTGVLDVDGNVDMPRMEKIMAAAGPLAVTFHRAFDMCANPLYTLNNLAELGIARVLTSGQKSDALQGLSKIMELIAHRDAPIIMAGAGVRAENLHHFLDAGVLEVHSSAGAWQASPMRYRNQGLSMSSDEHADEYSRYIVDGAAVAEMKGIIERHQAK	9.735 ± 0.081 h	5.29 ± 1.1 h	5.31 ± 1.4 h	5.99 ± 2.8 h	4.73 ± 0.25 h	4.47 ± 0.33 h	3.26 ± 0.64 h	6.29 ± 0.61 h	4.35 ± 0.53 h	6.84 ± 0.21 h	5.85 ± 0.37 h	11.8 ± 1.1 h
